Data as given in PMC6555819, “Comprehensive study of nuclear receptor DNA binding provides a revised framework for understanding receptor specificity”.

Molecular target: PXR:RXRa (Homo sapiens, UniProt O75469;P19793 full;full)
Test: no ligand; PBM; 270 nM : 90 nM RXRa; PBS pH 7.4, 2% milk, 0.02% Triton X-100, 1 mM DTT, BSA, 0.4 mg/ml salmon testes DNA
Details: tags: His kept;His cleaved; copies: 1;1; label: surface-attached array probe
Method in brief: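 For binding z-scores, the reference was random background probes on custom Agilent 4×180K protein-binding microarrays. These arrays were incubated 1 h with ligand-free nuclear receptor dimers in PBS pH 7.4, 2% milk, 0.02% Triton X-100, 1 mM DTT, 0.2 mg/mL BSA and 0.4 mg/ml salmon testes DNA. Fluorescence was scanned after antibody detection of each partner (one per run) and regression-normalized.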

Chain of PXR:RXRa (O75469 whole entry, chain 1 of 2): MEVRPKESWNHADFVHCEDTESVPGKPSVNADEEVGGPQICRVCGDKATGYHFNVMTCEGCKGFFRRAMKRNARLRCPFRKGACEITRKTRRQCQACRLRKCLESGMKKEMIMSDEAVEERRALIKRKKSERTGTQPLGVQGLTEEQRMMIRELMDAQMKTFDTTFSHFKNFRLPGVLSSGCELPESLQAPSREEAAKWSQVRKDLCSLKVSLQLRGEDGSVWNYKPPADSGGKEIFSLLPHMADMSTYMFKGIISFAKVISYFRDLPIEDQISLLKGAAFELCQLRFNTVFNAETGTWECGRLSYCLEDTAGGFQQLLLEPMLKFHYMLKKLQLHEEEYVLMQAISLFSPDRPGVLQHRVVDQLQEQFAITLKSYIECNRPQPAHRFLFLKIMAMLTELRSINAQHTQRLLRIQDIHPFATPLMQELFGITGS
Chain of PXR:RXRa (P19793 whole entry, chain 2 of 2): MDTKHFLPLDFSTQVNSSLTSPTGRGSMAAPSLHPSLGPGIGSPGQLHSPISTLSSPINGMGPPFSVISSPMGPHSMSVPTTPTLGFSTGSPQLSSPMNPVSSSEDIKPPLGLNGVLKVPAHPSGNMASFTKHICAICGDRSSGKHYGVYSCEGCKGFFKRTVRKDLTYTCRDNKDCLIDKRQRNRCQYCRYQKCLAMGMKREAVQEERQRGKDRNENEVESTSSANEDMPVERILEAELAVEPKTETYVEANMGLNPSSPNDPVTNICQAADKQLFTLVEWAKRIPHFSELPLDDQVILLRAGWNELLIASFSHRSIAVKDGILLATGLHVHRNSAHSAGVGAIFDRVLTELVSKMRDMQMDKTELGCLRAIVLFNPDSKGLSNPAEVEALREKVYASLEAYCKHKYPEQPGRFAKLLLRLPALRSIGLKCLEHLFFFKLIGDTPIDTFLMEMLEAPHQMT

| Binder | binding signal |
| --- | --- |
| NRC3_wobSeed5_DR0_G9A_o1 (dsDNA) DNA 1: GCCCTTACAGGTCAAGGTTATAGCACGGGTGGTACGGCGATTGACAGCGTAGAATGAAGG DNA 2: CCTTCATTCTACGCTGTCAATCGCCGTACCACCCGTGCTATAACCTTGACCTGTAAGGGC | 3.62 PBM z-score against 500 random probes |
| NRC3_wobSeed137_DR5_T6C_o1 (dsDNA) DNA 1: GCATACGTAGGTTACATCCGGGTCATTCAGGCTATGGCGATTGACAGCGTAGAATGAAGG DNA 2: CCTTCATTCTACGCTGTCAATCGCCATAGCCTGAATGACCCGGATGTAACCTACGTATGC | 3.61 PBM z-score against 500 random probes |
| NRC3_wobSeed21_DR0_A7T_o1 (dsDNA) DNA 1: GCCGTCTAAGTTCAAGGTAACGTAACAGAAAGCAGCGCGATTGACAGCGTAGAATGAAGG DNA 2: CCTTCATTCTACGCTGTCAATCGCGCTGCTTTCTGTTACGTTACCTTGAACTTAGACGGC | 3.59 PBM z-score against 500 random probes |
| NRC3_wobSeed66_DR2_C15T_o1 (dsDNA) DNA 1: GCAATACAGGGTCATTAGGCCAGAGTAGGTACGAATGCGATTGACAGCGTAGAATGAAGG DNA 2: CCTTCATTCTACGCTGTCAATCGCATTCGTACCTACTCTGGCCTAATGACCCTGTATTGC | 3.57 PBM z-score against 500 random probes |
| NRC3_wobSeed5_DR0_A22C_o1 (dsDNA) DNA 1: GCCCTTACGGGTCAAGGTTATCGCACGGGTGGTACGGCGATTGACAGCGTAGAATGAAGG DNA 2: CCTTCATTCTACGCTGTCAATCGCCGTACCACCCGTGCGATAACCTTGACCCGTAAGGGC | 3.55 PBM z-score against 500 random probes |
| NRC3_wobSeed138_DR5_C7A_o1 (dsDNA) DNA 1: GCGATAAAGGGTCAGCTAGAGGCCAGAGTATGGAAAGCGATTGACAGCGTAGAATGAAGG DNA 2: CCTTCATTCTACGCTGTCAATCGCTTTCCATACTCTGGCCTCTAGCTGACCCTTTATCGC | 3.54 PBM z-score against 500 random probes |
| NRC3_wobSeed58_DR2_G23C_o1 (dsDNA) DNA 1: GCATCGAAAGGTCGTGAGGTGACTATACAGAAAGGCGCGATTGACAGCGTAGAATGAAGG DNA 2: CCTTCATTCTACGCTGTCAATCGCGCCTTTCTGTATAGTCACCTCACGACCTTTCGATGC | 3.52 PBM z-score against 500 random probes |
| NRC3_wobSeed142_DR5_G22T_o1 (dsDNA) DNA 1: GCATACCAAGGTGATCGTGAGTTCGTTGATACTAACGCGATTGACAGCGTAGAATGAAGG DNA 2: CCTTCATTCTACGCTGTCAATCGCGTTAGTATCAACGAACTCACGATCACCTTGGTATGC | 3.5 PBM z-score against 500 random probes |
| NRC3_wobSeed5_DR0_T5G_o1 (dsDNA) DNA 1: GCCCGTACGGGTCAAGGTTATAGCACGGGTGGTACGGCGATTGACAGCGTAGAATGAAGG DNA 2: CCTTCATTCTACGCTGTCAATCGCCGTACCACCCGTGCTATAACCTTGACCCGTACGGGC | 3.48 PBM z-score against 500 random probes |
| NRC3_wobSeed66_DR2_A17T_o1 (dsDNA) DNA 1: GCAATACAGGGTCACTTGGCCAGAGTAGGTACGAATGCGATTGACAGCGTAGAATGAAGG DNA 2: CCTTCATTCTACGCTGTCAATCGCATTCGTACCTACTCTGGCCAAGTGACCCTGTATTGC | 3.45 PBM z-score against 500 random probes |
| NRC3_wobSeed112_DR4_T8A_o1 (dsDNA) DNA 1: GCTAGCCAAGGTCAGATCGGGCCAGTATACGCTATAGCGATTGACAGCGTAGAATGAAGG DNA 2: CCTTCATTCTACGCTGTCAATCGCTATAGCGTATACTGGCCCGATCTGACCTTGGCTAGC | 3.44 PBM z-score against 500 random probes |
| NRC3_wobSeed119_DR4_o1 (dsDNA) DNA 1: GCGGAACGAGGGCATTCGAGTTGATAGCATGGCGATGCGATTGACAGCGTAGAATGAAGG DNA 2: CCTTCATTCTACGCTGTCAATCGCATCGCCATGCTATCAACTCGAATGCCCTCGTTCCGC | 3.4 PBM z-score against 500 random probes |
| NRC3_wobSeed138_DR5_G9A_o1 (dsDNA) DNA 1: GCGATACAAGGTCAGCTAGAGGCCAGAGTATGGAAAGCGATTGACAGCGTAGAATGAAGG DNA 2: CCTTCATTCTACGCTGTCAATCGCTTTCCATACTCTGGCCTCTAGCTGACCTTGTATCGC | 3.38 PBM z-score against 500 random probes |
| NRC3_wobSeed130_DR5_C19T_o1 (dsDNA) DNA 1: GCCTCGAAAGGTCGTGCTTAGGTGAGTATACCAAACGCGATTGACAGCGTAGAATGAAGG DNA 2: CCTTCATTCTACGCTGTCAATCGCGTTTGGTATACTCACCTAAGCACGACCTTTCGAGGC | 3.37 PBM z-score against 500 random probes |
| NRC3_wobSeed106_DR4_G6C_o1 (dsDNA) DNA 1: GCCTCCAAAGGTCGGTTGAGGTGAGTATACGGATAAGCGATTGACAGCGTAGAATGAAGG DNA 2: CCTTCATTCTACGCTGTCAATCGCTTATCCGTATACTCACCTCAACCGACCTTTGGAGGC | 3.35 PBM z-score against 500 random probes |
| NRC3_wobSeed13_DR0_T18G_o1 (dsDNA) DNA 1: GCCGTCCAAGGTCAAGGGCAGTGAAAGAGACTCGAAGCGATTGACAGCGTAGAATGAAGG DNA 2: CCTTCATTCTACGCTGTCAATCGCTTCGAGTCTCTTTCACTGCCCTTGACCTTGGACGGC | 3.34 PBM z-score against 500 random probes |
| NRC3_wobSeed66_DR2_A27G_o1 (dsDNA) DNA 1: GCAATACAGGGTCACTAGGCCAGAGTGGGTACGAATGCGATTGACAGCGTAGAATGAAGG DNA 2: CCTTCATTCTACGCTGTCAATCGCATTCGTACCCACTCTGGCCTAGTGACCCTGTATTGC | 3.32 PBM z-score against 500 random probes |

| Binder | binding signal |
| --- | --- |
| NRC3_wobSeed30_DR1_G7T_o1 (dsDNA) DNA 1: GCACTATCAGGCCAAGGGTCACTCAAGATTAGTCCGGCGATTGACAGCGTAGAATGAAGG DNA 2: CCTTCATTCTACGCTGTCAATCGCCGGACTAATCTTGAGTGACCCTTGGCCTGATAGTGC | 3.31 PBM z-score against 500 random probes |
| NRC3_wobSeed140_DR5_A22G_o1 (dsDNA) DNA 1: GCAGAATGAGGTTATACGTAGGTCAGGGAAGAAAGTGCGATTGACAGCGTAGAATGAAGG DNA 2: CCTTCATTCTACGCTGTCAATCGCACTTTCTTCCCTGACCTACGTATAACCTCATTCTGC | 3.29 PBM z-score against 500 random probes |
| NRC3_wobSeed130_DR5_G16C_o1 (dsDNA) DNA 1: GCCTCGAAAGGTCGTCCTCAGGTGAGTATACCAAACGCGATTGACAGCGTAGAATGAAGG DNA 2: CCTTCATTCTACGCTGTCAATCGCGTTTGGTATACTCACCTGAGGACGACCTTTCGAGGC | 3.28 PBM z-score against 500 random probes |
| NRC3_wobSeed130_DR5_A30G_o1 (dsDNA) DNA 1: GCCTCGAAAGGTCGTGCTCAGGTGAGTATGCCAAACGCGATTGACAGCGTAGAATGAAGG DNA 2: CCTTCATTCTACGCTGTCAATCGCGTTTGGCATACTCACCTGAGCACGACCTTTCGAGGC | 3.26 PBM z-score against 500 random probes |
| NRC3_wobSeed23_DR0_A9G_o1 (dsDNA) DNA 1: GCGGAACGGGGGCAAGTTGATAGCAGAGTTTGATGGGCGATTGACAGCGTAGAATGAAGG DNA 2: CCTTCATTCTACGCTGTCAATCGCCCATCAAACTCTGCTATCAACTTGCCCCCGTTCCGC | 3.23 PBM z-score against 500 random probes |
| NRC3_wobSeed3_DR0_A9G_o1 (dsDNA) DNA 1: GCGCTCGGGGGACAAGGTCAGAGCTTTGTCCGTAGAGCGATTGACAGCGTAGAATGAAGG DNA 2: CCTTCATTCTACGCTGTCAATCGCTCTACGGACAAAGCTCTGACCTTGTCCCCCGAGCGC | 3.22 PBM z-score against 500 random probes |
| NRC3_wobSeed29_DR1_C13G_o1 (dsDNA) DNA 1: GCGCTTACGGGTGAAAGGTTATAGCATGAATAGAATGCGATTGACAGCGTAGAATGAAGG DNA 2: CCTTCATTCTACGCTGTCAATCGCATTCTATTCATGCTATAACCTTTCACCCGTAAGCGC | 3.2 PBM z-score against 500 random probes |
| NRC3_wobSeed138_DR5_A18T_o1 (dsDNA) DNA 1: GCGATACAGGGTCAGCTTGAGGCCAGAGTATGGAAAGCGATTGACAGCGTAGAATGAAGG DNA 2: CCTTCATTCTACGCTGTCAATCGCTTTCCATACTCTGGCCTCAAGCTGACCCTGTATCGC | 3.18 PBM z-score against 500 random probes |
| NRC3_wobSeed34_DR1_A24C_o1 (dsDNA) DNA 1: GCATCGAAAGGTCGAAGGTGAGTCTACCCACCCGAAGCGATTGACAGCGTAGAATGAAGG DNA 2: CCTTCATTCTACGCTGTCAATCGCTTCGGGTGGGTAGACTCACCTTCGACCTTTCGATGC | 3.17 PBM z-score against 500 random probes |
| NRC3_wobSeed72_DR2_o1 (dsDNA) DNA 1: GCTCGAGTAGGTTACGGGGGCATTCAGGGATGAAGAGCGATTGACAGCGTAGAATGAAGG DNA 2: CCTTCATTCTACGCTGTCAATCGCTCTTCATCCCTGAATGCCCCCGTAACCTACTCGAGC | 3.16 PBM z-score against 500 random probes |
| NRC3_wobSeed120_DR4_A14C_o1 (dsDNA) DNA 1: GCCCGAGTAGGTTCCGAGGGGGCATTCAGTGCGAATGCGATTGACAGCGTAGAATGAAGG DNA 2: CCTTCATTCTACGCTGTCAATCGCATTCGCACTGAATGCCCCCTCGGAACCTACTCGGGC | 3.13 PBM z-score against 500 random probes |
| NRC3_wobSeed104_DR4_G7A_o1 (dsDNA) DNA 1: GCTCTTATAGATCAATAGAGGTTAAGAAAGTGCGCTGCGATTGACAGCGTAGAATGAAGG DNA 2: CCTTCATTCTACGCTGTCAATCGCAGCGCACTTTCTTAACCTCTATTGATCTATAAGAGC | 3.11 PBM z-score against 500 random probes |
| NRC3_wobSeed120_DR4_G10A_o1 (dsDNA) DNA 1: GCCCGAGTAAGTTACGAGGGGGCATTCAGTGCGAATGCGATTGACAGCGTAGAATGAAGG DNA 2: CCTTCATTCTACGCTGTCAATCGCATTCGCACTGAATGCCCCCTCGTAACTTACTCGGGC | 3.08 PBM z-score against 500 random probes |
| NRC3_wobSeed137_DR5_A29T_o1 (dsDNA) DNA 1: GCATATGTAGGTTACATCCGGGTCATTCTGGCTATGGCGATTGACAGCGTAGAATGAAGG DNA 2: CCTTCATTCTACGCTGTCAATCGCCATAGCCAGAATGACCCGGATGTAACCTACATATGC | 3.07 PBM z-score against 500 random probes |
| NRC3_wobSeed34_DR1_G22C_o1 (dsDNA) DNA 1: GCATCGAAAGGTCGAAGGTGACTATACCCACCCGAAGCGATTGACAGCGTAGAATGAAGG DNA 2: CCTTCATTCTACGCTGTCAATCGCTTCGGGTGGGTATAGTCACCTTCGACCTTTCGATGC | 3.06 PBM z-score against 500 random probes |
| NRC3_wobSeed72_DR2_T24C_o1 (dsDNA) DNA 1: GCTCGAGTAGGTTACGGGGGCATCCAGGGATGAAGAGCGATTGACAGCGTAGAATGAAGG DNA 2: CCTTCATTCTACGCTGTCAATCGCTCTTCATCCCTGGATGCCCCCGTAACCTACTCGAGC | 3.05 PBM z-score against 500 random probes |
